Assay [1] deals with native rat TrkA on PC12 cells (rat, UniProt P35739 33-799). The experiment in a line: cell-based or functional assay.
The target in the next assay is T1, recombinant human TrkA (human, UniProt P04629 33-423, limits assumed).
T1 construct: also called hTrkA
Briefly: SPR, antibody captured on protein A chip, TrkA as analyte, single concentration, 1:1 model. A general note: In SPR one partner is held on a chip, and binding of the other changes the refractive index at the surface.

Assay [2] addresses T2, hTrkB-Extracellular Domain-poly C-terminal Histidine tagged (human, UniProt Q16620 32-430).
T2 construct: extracellular domain; Immobilised on a CM5 chip by amine coupling; also called hTrkB-ECD-His; human TrkB
Briefly: SPR, target amine-coupled on CM5 chip, 25 C, pH 7.4.

The target of a further assay is T3, hTrkC-ECD-His (human, UniProt Q16288 32-429).
T3 construct: extracellular domain; Immobilised on a CM5 chip by amine coupling; also called human TrkC
The assay is described as above.

For another assay, the target named is T4, hp75NTR-His (human, UniProt P08138 29-250).
T4 construct: extracellular domain; Immobilised on a CM5 chip by amine coupling; also called human p75NTR
T4 sequence (looked up): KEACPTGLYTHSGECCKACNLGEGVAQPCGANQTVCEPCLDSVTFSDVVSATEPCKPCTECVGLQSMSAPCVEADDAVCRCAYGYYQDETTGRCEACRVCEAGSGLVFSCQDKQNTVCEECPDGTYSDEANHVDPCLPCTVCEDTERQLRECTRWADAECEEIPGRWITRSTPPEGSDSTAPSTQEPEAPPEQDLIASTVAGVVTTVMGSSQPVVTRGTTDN
Described as above.

Assay [3] deals with T5, native human TrkA expressed endogenously on SH-SY5Y cells (human, UniProt P04629 33-796).
T5 construct: whole, on cells
T5 sequence (P04629 33-796): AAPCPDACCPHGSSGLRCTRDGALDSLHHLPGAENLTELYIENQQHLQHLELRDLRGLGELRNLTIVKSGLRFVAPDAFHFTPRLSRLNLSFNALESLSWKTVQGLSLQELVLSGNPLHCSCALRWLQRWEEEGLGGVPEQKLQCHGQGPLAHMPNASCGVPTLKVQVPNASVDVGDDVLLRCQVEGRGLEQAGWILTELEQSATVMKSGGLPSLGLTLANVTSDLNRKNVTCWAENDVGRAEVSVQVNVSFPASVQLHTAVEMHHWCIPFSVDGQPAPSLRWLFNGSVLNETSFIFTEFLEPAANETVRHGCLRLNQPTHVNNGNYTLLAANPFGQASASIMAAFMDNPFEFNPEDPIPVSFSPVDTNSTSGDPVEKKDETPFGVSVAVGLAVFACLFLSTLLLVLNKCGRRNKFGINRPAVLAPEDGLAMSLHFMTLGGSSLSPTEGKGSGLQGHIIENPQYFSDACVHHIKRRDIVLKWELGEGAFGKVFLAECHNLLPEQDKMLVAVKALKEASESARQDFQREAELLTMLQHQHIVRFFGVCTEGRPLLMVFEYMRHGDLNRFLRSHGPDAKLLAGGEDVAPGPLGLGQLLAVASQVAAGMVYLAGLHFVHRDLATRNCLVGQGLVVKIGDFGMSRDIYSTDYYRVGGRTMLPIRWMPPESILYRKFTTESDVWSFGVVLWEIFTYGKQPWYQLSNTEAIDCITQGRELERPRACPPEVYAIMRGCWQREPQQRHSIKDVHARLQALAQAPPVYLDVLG
Briefly: flow cytometry on SH-SY5Y cells, anti-human IgG Fc secondary, MFI, average of three experiments. (In general: A flow cytometer gives signals particle by particle.)

Positions count from the first letter of the chain named.

A word on the Kd: it is the equilibrium constant for the complex coming apart. One may read the koff as the first-order rate constant of dissociation. The kon is the rate constant with which the complex forms. The EC50 is the concentration at which the effect is half-maximal. Low readings indicate greater potency, high ones weaker potency.

T1 sequence (P04629 33-423 limits assumed): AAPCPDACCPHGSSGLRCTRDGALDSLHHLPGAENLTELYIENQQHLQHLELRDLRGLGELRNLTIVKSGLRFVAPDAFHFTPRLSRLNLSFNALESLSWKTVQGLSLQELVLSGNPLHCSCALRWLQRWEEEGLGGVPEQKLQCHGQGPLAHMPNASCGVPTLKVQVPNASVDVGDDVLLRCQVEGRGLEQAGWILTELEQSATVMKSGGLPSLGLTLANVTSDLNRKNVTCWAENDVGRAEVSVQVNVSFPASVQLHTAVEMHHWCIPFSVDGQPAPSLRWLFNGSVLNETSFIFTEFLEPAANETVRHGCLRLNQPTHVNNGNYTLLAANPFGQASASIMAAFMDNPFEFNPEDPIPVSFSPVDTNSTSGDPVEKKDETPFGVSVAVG
native rat TrkA on PC12 cells, sequence (P35739 33-799): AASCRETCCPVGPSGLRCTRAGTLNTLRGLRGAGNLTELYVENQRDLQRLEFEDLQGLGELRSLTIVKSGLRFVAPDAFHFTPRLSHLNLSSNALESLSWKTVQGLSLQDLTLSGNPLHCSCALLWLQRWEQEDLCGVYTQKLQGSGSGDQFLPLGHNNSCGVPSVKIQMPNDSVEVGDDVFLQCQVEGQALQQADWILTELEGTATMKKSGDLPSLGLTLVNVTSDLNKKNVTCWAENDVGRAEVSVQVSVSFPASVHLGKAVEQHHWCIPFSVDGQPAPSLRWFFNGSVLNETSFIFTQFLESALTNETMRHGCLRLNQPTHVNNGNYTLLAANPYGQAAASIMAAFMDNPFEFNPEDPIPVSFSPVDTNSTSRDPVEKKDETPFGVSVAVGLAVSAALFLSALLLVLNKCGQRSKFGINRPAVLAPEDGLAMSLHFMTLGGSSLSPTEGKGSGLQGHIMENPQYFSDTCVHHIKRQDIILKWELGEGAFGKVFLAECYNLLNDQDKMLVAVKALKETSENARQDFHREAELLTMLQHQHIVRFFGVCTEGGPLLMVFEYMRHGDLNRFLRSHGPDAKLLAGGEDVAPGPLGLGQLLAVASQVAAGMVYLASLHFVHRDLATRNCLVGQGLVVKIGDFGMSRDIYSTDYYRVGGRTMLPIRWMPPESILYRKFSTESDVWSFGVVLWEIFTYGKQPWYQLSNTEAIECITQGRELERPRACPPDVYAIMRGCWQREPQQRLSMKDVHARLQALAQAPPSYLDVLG
T2 sequence (Q16620 32-430): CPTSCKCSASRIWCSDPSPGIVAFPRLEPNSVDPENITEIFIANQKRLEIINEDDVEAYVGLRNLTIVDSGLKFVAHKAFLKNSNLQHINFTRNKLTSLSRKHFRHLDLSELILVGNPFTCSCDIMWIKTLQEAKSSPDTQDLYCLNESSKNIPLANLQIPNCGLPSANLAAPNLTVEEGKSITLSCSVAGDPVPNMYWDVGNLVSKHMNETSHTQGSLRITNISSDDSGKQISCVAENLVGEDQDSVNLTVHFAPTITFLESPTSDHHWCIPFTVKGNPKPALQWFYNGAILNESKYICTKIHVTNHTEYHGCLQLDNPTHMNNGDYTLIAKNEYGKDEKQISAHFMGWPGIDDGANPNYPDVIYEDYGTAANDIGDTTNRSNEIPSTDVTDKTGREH

B1: anti-TrkA antibody Ab122 (antibody, V domains shown)
VH: EVQLQESGPGLVKPSGTLSLTCAVSGGSISSSNWWTWVRQPPGKGLEWIGEIYHRGNRNYNPSLKSRVTISVDKSKNQFSLKLSSVTAADTAVYYCARAPWFDYWGQGTLV
VL: SSELTQDPAVSVALGQTVRITCQGASLRSYYASWYQQKPGQAPVLVIYGKNKRPSGIPDRFSGSSSGNTASLTITGAQAEDEADYYCASQASSGNHLIFGGGTKLT
On to B1, for which, in assay [1], the “Akt pathway activation (pEC50)” value worked out at 9.5 pEC50, the “Erk pathway activation (pEC50)” value turned out to be 9.88 pEC50 and the “Neurite outgrowth (pEC50)” value was found to be 9.6 pEC50. Also, in the assay with recombinant human TrkA, the Kd stood at 1.45 nM and the off-rate constant (koff) stood at 0.000294 s⁻¹.

B2: anti-TrkA antibody Ab124 (antibody, V domains shown)
VH: B1 VH
VL: B1 VL with N51G, K52N, A88N, A91D
In the case of B2, in assay [1], the “Akt pathway activation (pEC50)” value amounted to 9.03 pEC50, the “Erk pathway activation (pEC50)” value worked out at 9.23 pEC50 and the “Neurite outgrowth (pEC50)” value was determined as 10.1 pEC50. In the assay with recombinant human TrkA, the Kd turned out to be 1.21 nM, the koff was 0.000327 s⁻¹ and the kon was found to be 271000 M⁻¹ s⁻¹.

B3: anti-TrkA antibody Ab145 (antibody, V domains shown)
VH: B1 VH
VL: B1 VL with A25L
In the case of B3, in assay [1], the “Akt pathway activation (pEC50)” value came out at 9.68 pEC50, the “Erk pathway activation (pEC50)” value is 9.89 pEC50 and the “Neurite outgrowth (pEC50)” value is 10.1 pEC50. In addition, in the assay with recombinant human TrkA, the Kd is 1.5 nM and the koff amounted to 0.000299 s⁻¹.

B4: anti-TrkA antibody Ab142 (antibody, V domains shown)
VH: B1 VH
VL: B1 VL with A25L, A88N
With B4, in assay [1], the “Akt pathway activation (pEC50)” value came out at 9.53 pEC50, the “Erk pathway activation (pEC50)” value came to 9.54 pEC50 and the “Neurite outgrowth (pEC50)” value is 9.97 pEC50. Besides, in the assay with recombinant human TrkA, the Kd was found to be 0.999 nM and the koff worked out at 0.000254 s⁻¹.

B5: anti-TrkA antibody Ab147 (antibody, V domains shown)
VH: B1 VH
VL: B1 VL with A25L, N51G, K52N, A88N, A91D
With B5, in assay [1], the “Akt pathway activation (pEC50)” value worked out at 9.25 pEC50, the “Erk pathway activation (pEC50)” value came out at 9.11 pEC50 and the “Neurite outgrowth (pEC50)” value turned out to be 10.1 pEC50. Moreover, in the assay with recombinant human TrkA, the Kd came to 1.19 nM, the koff was 0.000314 s⁻¹ and the kon turned out to be 264000 M⁻¹ s⁻¹.

B6: anti-TrkA antibody Ab82, full length (antibody, V domains shown)
VH: QVQLQESGPGLVKPSGTLSLTCAVSGGSISSSNWWTWVRQPPGKGLEWIGEIYHRGNRNYNPSLKSRVTISVDKSKNQFSLKLSSVTAADTAVYYCARAPWFDYWGQGTLVTVSS
VL: SSELTQDPAVSVALGQTVRITCQGDALRSYYASWYQQKPGQAPVLVIYGKGNRPSGIPDRFSGSSSGNTASLTITGAQAEDEADYYCASQASSGNHLIFGGGTKLTVLG
notes: also called full length Ab82; full-length antibody
For B6, in assay [1], the Akt phosphorylation in PC12 cells, EC50 stood at 0.501 nM; the Erk phosphorylation in PC12 cells, EC50 was determined as 0.54 nM; the TrkA receptor phosphorylation in PC12 cells (AlphaLISA p-TrkA Tyr674/675), EC50 amounted to 0.341 nM; the neurite outgrowth in PC12 cells at 138 hours, EC50 stood at 0.0858 nM. Further, the binding result in assay [2] is “no binding (tested: 1 nM)”. In the assay with hTrkC-ECD-His, the binding result is recorded as “no binding (tested: 1 nM)”. For the same molecule, the binding result with hp75NTR-His was “no binding (tested: 1 nM)”. Moreover, in assay [3], the EC50 came to 275 nM.

(Values after US20250122291A1 (CEPHALON, published 2025).)
